T1: human Angiopoietin-1 (human, UniProt Q15389 20-498, limits assumed)
T1 construct: Bought recombinant protein (R&D Systems 293-AN-025/CF) or supernatant of transfected 293F cells; also called Ang-1; recombinant Ang-1
T1 sequence: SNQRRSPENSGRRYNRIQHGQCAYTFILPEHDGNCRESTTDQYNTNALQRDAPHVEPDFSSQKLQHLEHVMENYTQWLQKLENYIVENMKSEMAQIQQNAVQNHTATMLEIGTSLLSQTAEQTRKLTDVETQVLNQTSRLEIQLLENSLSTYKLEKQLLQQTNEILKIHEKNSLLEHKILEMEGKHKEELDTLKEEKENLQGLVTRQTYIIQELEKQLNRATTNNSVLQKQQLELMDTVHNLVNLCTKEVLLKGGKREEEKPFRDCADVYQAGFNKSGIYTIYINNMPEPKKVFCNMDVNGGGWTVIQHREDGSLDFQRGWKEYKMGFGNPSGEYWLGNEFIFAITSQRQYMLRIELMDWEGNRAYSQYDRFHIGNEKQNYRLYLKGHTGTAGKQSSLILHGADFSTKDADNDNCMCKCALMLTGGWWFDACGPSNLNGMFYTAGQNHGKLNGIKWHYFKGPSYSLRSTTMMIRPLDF

T2: human Ang-2 V345M (human, UniProt O15123 19-496)
T2 sequence: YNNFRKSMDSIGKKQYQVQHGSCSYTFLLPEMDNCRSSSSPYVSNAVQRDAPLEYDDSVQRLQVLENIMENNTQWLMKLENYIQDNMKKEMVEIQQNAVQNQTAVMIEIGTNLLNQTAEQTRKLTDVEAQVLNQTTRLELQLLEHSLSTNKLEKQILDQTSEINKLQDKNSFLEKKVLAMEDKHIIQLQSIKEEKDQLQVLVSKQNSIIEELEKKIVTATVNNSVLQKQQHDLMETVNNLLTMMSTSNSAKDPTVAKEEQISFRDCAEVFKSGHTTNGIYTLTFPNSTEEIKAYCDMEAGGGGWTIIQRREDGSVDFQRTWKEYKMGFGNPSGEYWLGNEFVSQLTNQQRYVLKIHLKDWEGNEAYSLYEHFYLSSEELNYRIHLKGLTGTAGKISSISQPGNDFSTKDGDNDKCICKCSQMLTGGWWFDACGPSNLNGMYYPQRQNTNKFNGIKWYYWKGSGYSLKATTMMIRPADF

T3: human Ang-2443 (human, UniProt O15123 19-496)
T3 construct: Splice variant missing amino acids 96-148; supernatant of transfected 293F cells
T3 sequence: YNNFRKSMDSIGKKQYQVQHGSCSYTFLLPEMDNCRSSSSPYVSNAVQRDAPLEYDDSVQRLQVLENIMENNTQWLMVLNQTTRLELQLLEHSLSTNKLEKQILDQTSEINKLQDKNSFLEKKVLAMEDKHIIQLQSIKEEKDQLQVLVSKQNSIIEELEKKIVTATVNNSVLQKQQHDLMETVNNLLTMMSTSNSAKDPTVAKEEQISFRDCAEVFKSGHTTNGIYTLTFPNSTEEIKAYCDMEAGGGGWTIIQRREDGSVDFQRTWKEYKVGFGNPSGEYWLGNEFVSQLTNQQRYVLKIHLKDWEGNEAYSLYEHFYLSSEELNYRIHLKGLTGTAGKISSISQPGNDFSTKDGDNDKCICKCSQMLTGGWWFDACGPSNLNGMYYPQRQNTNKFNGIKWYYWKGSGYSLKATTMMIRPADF

T4: Human Ang-1/2 BsmI chimeric molecule (human)
T4 chain: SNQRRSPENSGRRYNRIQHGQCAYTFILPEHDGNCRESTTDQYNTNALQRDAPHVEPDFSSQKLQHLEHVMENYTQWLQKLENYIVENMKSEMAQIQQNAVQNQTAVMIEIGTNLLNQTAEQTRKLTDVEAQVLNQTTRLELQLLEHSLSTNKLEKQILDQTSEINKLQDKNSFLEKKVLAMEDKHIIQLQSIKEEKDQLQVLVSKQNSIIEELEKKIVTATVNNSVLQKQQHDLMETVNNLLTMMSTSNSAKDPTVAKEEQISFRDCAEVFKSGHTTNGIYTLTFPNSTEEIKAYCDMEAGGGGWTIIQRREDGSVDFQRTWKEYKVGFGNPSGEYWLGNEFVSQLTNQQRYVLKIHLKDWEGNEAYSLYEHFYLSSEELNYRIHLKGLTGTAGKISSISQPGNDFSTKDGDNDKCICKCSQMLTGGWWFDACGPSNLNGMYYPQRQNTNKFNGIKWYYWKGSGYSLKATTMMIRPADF

T5: Mouse/Human Ang-2 StuI chimeric molecule (mouse; human, UniProt O35608 19-496)
T5 construct: also called M/H Stul 310-496
T5 chain: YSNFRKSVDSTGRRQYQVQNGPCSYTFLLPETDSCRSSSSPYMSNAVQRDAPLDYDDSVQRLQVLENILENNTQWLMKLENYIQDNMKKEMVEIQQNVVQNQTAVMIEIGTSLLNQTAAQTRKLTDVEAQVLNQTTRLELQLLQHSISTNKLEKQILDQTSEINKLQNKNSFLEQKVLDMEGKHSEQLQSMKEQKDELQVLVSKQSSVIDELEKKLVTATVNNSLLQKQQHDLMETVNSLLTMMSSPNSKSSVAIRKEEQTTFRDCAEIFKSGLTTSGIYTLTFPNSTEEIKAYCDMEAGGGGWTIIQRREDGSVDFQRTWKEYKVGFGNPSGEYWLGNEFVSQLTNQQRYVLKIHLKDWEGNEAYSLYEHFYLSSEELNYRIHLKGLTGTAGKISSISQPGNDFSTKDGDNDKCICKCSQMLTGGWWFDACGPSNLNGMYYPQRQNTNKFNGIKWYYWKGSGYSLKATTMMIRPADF

B1: mAb 5.86.1 (antibody, V domains shown)
VH: QVQLVQSGAEVKKPGASVKVSCKASGYTFTGYHMYWVRQAPGQGLEWLGWINPNSGGTNYAQKFQGRVTMTRDTSISTAYMELSRLRSDDTAVYYCVRDQGIAAAGPFDYWCQGTLVTVSS
VL: DIRMTQSPSSLSASVGDRVTITCRASQRISTYLNWYQQKPGKAPKFLIYAASSLQSGVPSRFSGSGSGTDFTLTISSLQPEDFATYYCQQSYTTPFTFGPGTKVDIKR
notes: Human hybridoma IgG (XenoMouse); also called x5.86
B2: mAb 3.19.3 (antibody, V domains shown)
VH: QVQLVESGGGVVQPGRSLRLSCAASGFTFTNYGMHWGRQAPGKGLEWVAVISHDGNNKYYVDSVKGRFTISRDNSKNTLYLQMNSLRAEDTAVYYCAREGIDFWSGLNWFDPWGQGTLVTVSS
VL: EIVLTQSPGTLSLSPGERATLSCRASQSITGSYLAWYQQKPGQAPRLLICGASSWATGIPDRFSGSGSGTDFTLTISRLEPEDFAVYYCQQYSSSPITFGQGTRLEIKR
notes: Human hybridoma IgG (XenoMouse); also called x3.19
B3: mAb 5.83.1 (antibody, V domains shown)
VH: not shown
VL: EIVMTQSPATLSVSPGERATLSCRASQSLISNLAWYQQKPGQAPRLLIFGASTRATGIPARFSGSGSGTEFTLTISSLQSEDFAVYYCHQYNNWWTFGQGTKVEIKR
notes: Human hybridoma IgG (XenoMouse); also called x5.83
B4: mAb 5.13.1 (antibody, V domains shown)
VH: EVQLVESGGGLVQPGGSLRLSCAASGFTFSSYWMSWVRQAPGKGLEWVANIKQDGSEKYYVDSVKGRFTISRDNAKNSLYLQMNSLRAEDTAVYYCARDPGIAVAGPFDYWGQGTLVTVSS
VL: EIVMTQSPATLSVSPGERATLSCRASQSVSSNLAWYQQKPGQAPRLLIYGASTRATGIPARFSGSGSGTEFTLTISSLQSEDFAVYYCQQYNHWWTFGQGTKVEIKR
notes: Human hybridoma IgG (XenoMouse); also called x5.13
B5: mAb 5.88.3 (antibody, V domains shown)
VH: EVQMVESGGGLVQPGGSLRLSCAASGFTLRSYWMSWVRQAPGKGLEWVANIKEDGSEKYHVDSVKGRFTISRDNAENSLFLQMSSLRAEDTAVYYCARDMEASAGLFDYWGQGTLVTVSS
VL: EIVMTQSPATLSVSPGERAILSCRASQSISSNLAWYQQKPGQAPRLLIYGASTRATGIPARFSGSGSGTEFTLTISSLQSEDFAVYYCQQYNYWWTFGQGTKVEIKR
notes: Human hybridoma IgG (XenoMouse); also called x5.88
B6: mAb 3.31.2 (antibody, V domains shown)
VH: EVQLVESGGGLVQPGGSLRLSCAASGFTFSSYWMSWVRQAPGKGLEWVANIKQDGSDKYYVDSVKGRFTISRDNAKNSLYLRMNSLRAEDTAVFYCARDMGSGWFDYWGQGTLVTVSS
VL: EVVMTQSPATLSVSPGERATLSCRASQSVGSNLAWYQQKPGQAPRLLIYGASTRATGIPARFSGSGSGTEFTLTISSLQSEDFAVYCCQQYNHWWTFGQGTKVEIKR
notes: Human hybridoma IgG (XenoMouse); also called x3.31
B7: mAb 5.54.1 (antibody, V domains shown)
VH: not shown
VL: EIVMTQSPATLSVSPGERATLSCRASQSLISNLAWYQQKPGQAPRLLIFGASTRATGIPARFSGSGSGTEFTLTISSLQSEDFAIYYCHQYNNWWTFGQGTKVEIKR
notes: Human hybridoma IgG (XenoMouse); also called x5.54
B8: mAb 5.62.1 (antibody, V domains shown)
VH: EVQLVESGGGLVQPGGSLRLSCAASGFTFSSYWMSWVRQAPGKGLEWVANIKQDGSEKYYVDSVKGRFTISRDNAKNSLYLQMNSLRAEDTAVYYCARDPGIAVAGPFDYWGQGTLVTVSS
VL: EIVMTQSPATLSVSPGERATLSCRASQSVSSNLAWYQQKPGQAPRLLIYGAFTRATGIPARFSGSGSGTEFTLTISSLQSEDFAVYYCQQYNHWWTFGQGTKVGIKR
notes: Human hybridoma IgG (XenoMouse); also called x5.62
B9: mAb 3.3.2 (antibody, V domains shown)
VH: EVQLVESGGGLVQPGGSLRLSCAVSGFTFSSYWMSWVRQAPGKGLEWVANIKQDGSEKYYVDSVKGRFTISRDNAKNSLYLQMNSLRAEDTAVYYCARDQGIAVAGPFDYWGQGTLVTVSS
VL: EIVMTQSPATLSVSPGERATLSCRASQTVSSDLAWYQQKPGQAPRLLIYGASIRATGIPARFSGSGSGTEFTLTISSLQSEDFAVYSCQQYYNWWTFGQGTKVEIKR
notes: Human hybridoma IgG (XenoMouse); also called 3.3.1; x3.3
B10: mAb 5.101.1 (antibody, V domains shown)
VH: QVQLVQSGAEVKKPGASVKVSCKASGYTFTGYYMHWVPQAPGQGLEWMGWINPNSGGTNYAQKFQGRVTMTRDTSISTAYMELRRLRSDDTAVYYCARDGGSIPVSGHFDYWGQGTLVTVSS
VL: EIVMTQSPATLSVSPGERATLSCRASQSLISNLAWYQQKPGQAPRLLIFGASTRATGIPARFSGSGSGTEFTLTISSLQSEDFAVYYCHQYNNWWTFGQGTKVEIKR
notes: Human hybridoma IgG (XenoMouse); also called x5.101
B11: mAb 5.52.1 (antibody, V domains shown)
VH: QVQLVESGGGVVQPGRSLRLSCAASGFTFSSYGMHWVRQAPGKGLEWVAVRWYDESNKYYADSVKGRFTISRDNSKNTLYLQMNSLRAEDTAVYYCARDPFETGTTFDYWGQGTLVTVSS
VL: DIQMTQSPSSVSASVGDRVTITCRASQGISSWLAWYQQKPGKAPKLLIYAVSSLESGVPSRFSGSGSGTDFTLTISSLQPEDFATYYCQQALTFGGGTKVEIKR
notes: Human hybridoma IgG (XenoMouse); the line 5.52 has entries of its own (347, 349; light chain L2) that differ from the clone 5.52.1 (L5); also called x5.52

Legend:
human Angiopoietin-1 = biological target: T1, human Angiopoietin-1; assay: capture ELISA
Description: The binding of the top 27 human monoclonal antibodies was detected with a HRP-conjugated goat anti-human antibody, followed by colorimetric horseradish peroxidase substrate (Enhanced K-Blue TMB substrate Neogen Corporation). The absorbance of each well of the ELISA plates was measured at 450 nm on a microplate autoreader.

human Ang-2 V345M = biological target: T2, human Ang-2 V345M; assay: ELISA
human Ang-2443 = biological target: T3, human Ang-2443; assay: ELISA
[1] = biological target: T4, Human Ang-1/2 BsmI chimeric molecule; assay: ELISA
[2] = biological target: T5, Mouse/Human Ang-2 StuI chimeric molecule; assay: ELISA

| Binder | binding result (human Angiopoietin-1) | % of binding to human Ang-2 (human Ang-2 V345M) | % of binding to human Ang-2 (human Ang-2443) | % of binding to human Ang-2 [1] | % of binding to human Ang-2 [2] |
| --- | --- | --- | --- | --- | --- |
| B1 | no binding | 100% | 100% | 100% | 100% |
| B2 | – | 100% | 100% | 100% | 100% |
| B3 | no binding | 100% | 100% | 100% | 100% |
| B4 | no binding | 100% | 100% | 100% | 100% |
| B5 | no binding | 100% | 100% | 100% | 100% |
| B6 | no binding | 100% | 100% | 100% | – |
| B7 | no binding | 100% | 100% | 100% | 100% |
| B8 | no binding | 100% | 100% | 100% | 100% |
| B9 | – | 100% | 100% | 100% | 100% |
| B10 | no binding | 100% | 100% | 100% | 100% |
| B11 | – | 100% | 100% | 100% | 100% |

Source: US20080267971A1 (published 2008)
